Columns and labels:
[1] = biological target: T1, tau (human 1N4R-tau isoform, 412 amino acids) (human, UniProt P10636-7 1-412); experiment: TIRF microscopy of reconstituted dynamic microtubules
[2] = biological target: T1, tau (human 1N4R-tau isoform, 412 amino …); experiment: pull-down
[3] = biological target: T1, tau (human 1N4R-tau isoform, 412 amino …); experiment: other fluorescence titration

B1: GFP-EB1-Δ-tail (GFP-EB1 lacking the last 20 amino acid residues) (domain or fragment)
chain: MAVNVYSTSVTSDNLSRHDMLAWINESLQLNLTKIEQLCSGAAYCQFMDMLFPGSIALKKVKFQAKLEHEYIQNFKILQAGFKRMGVDKIIPVDKLVKGKFQDNFEFVQWFKKFFDANYDGKDYDPVAARQGQETAVAPSLVAPALNKPKKPLTSSSAAPQRPISTQRTAAAPKAGPGVVRKNPGVGNGDDEAAELMQQVNVLKLTVEDLEKERDFYFGKLRNIELICQENEGENDPVLQRIVDILYA
[1]
  binding result: binds

B2: biotinylated EB1 (mouse end-binding protein 1) (natural protein)
chain: MAVNVYSTSVTSDNLSRHDMLAWINESLQLNLTKIEQLCSGAAYCQFMDMLFPGSIALKKVKFQAKLEHEYIQNFKILQAGFKRMGVDKIIPVDKLVKGKFQDNFEFVQWFKKFFDANYDGKEYDPVAARQGQETAVAPSLVAPALSKPKKPLGSSTAAPQRPIATQRTTAAPKAGPGMVRKNPGVGNGDDEAAELMQQVKVLKLTVEDLEKERDFYFGKLRNIELICQENEGENDPVLQRIVDILYATDEGFVIPDEGGPQEEQEEY
modifications: biotin (EZ-Link NHS-Chromogenic Biotinylation Kit)
[2]
  binding result: binds

B3: EB1 (mouse end-binding protein 1), not labelled (natural protein)
chain: B2 chain
[3]
  Kd: 1700 ± 1100 nM
